Assay [1] addresses human PlGF-1 comprising amino acids 1-137 produced in human embryonic kidney cells (human) (UniProt P49763). Description: Format 3 Quantikine ELISA, capture MAb264, detection Pb264; sFlt-1 0 pmol/L (ratio 0). Background: An ELISA detects its analyte on a solid surface through an enzyme-linked reagent.
Assay [2] has the same target. Description: Format 3 Quantikine ELISA, capture MAb264, detection Pb264; sFlt-1 2300 pmol/L (ratio 75).
Assay [3] shares this target. Nature of the assay: Format 2 …, capture MAb264, detection Pb264; sFlt-1 77 pmol/L (ratio 2.5).
For assay [4] the target is unchanged. Nature of the assay: Format 3 Quantikine ELISA, capture MAb264, detection Pb264; sFlt-1 1533 pmol/L (ratio 50).
The target in assay [5] is T1, CHO human PlGF-1 fragment (comprising amino acids 17-131; ATCC PTA-8540) (human, UniProt P49763 35-221).
T1 sequence: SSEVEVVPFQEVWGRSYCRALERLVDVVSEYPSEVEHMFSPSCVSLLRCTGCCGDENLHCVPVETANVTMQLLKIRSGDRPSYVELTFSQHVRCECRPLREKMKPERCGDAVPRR
Nature of the assay: … sandwich, capture MAb255, detection MAb826; antigen 0 pg/mL (blank). In short, it runs like this:
(§1)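 Values are chemiluminescent relative light units (RLU) from a sandwich immunoassay of human PlGF-1 antigen preparations, some of them recombinant forms made in CHO cells. Antigen levels ran from 0 to 1500 pg/mL. Capture was by a monoclonal anti-human PlGF-1 antibody bound to magnetic microparticles, and detection was by an acridinium ester-labeled monoclonal anti-human PlGF-1 antibody.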

The target of assay [6] is T2, human PlGF-1 comprising amino acids 1-137 produced in human embryonic kidney cells (human, UniProt P49763 19-221).
T2 construct: Mature human PlGF-1 with 6xHis tag; also called HEK (1-137); full length HEK human PlGF-1 (1-137)
T2 sequence: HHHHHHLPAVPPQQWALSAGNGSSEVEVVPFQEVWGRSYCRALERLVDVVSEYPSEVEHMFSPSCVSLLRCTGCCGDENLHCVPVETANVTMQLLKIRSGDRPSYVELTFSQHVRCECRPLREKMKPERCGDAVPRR
Described as above. Summed up: as §1

Assay [7] addresses T3, CHO human PlGF-1 comprising amino acids 1-137 (human PlGF-1-His (1-131), CHO 6305) (human, UniProt P49763 19-221, N-glycans at N21 (completely glycosylated) and N89 (partially glycosylated)).
T3 construct: Mature human PlGF-1 with 6xHis tag (137 amino acids); also called CHO (1-137)
T3 sequence: T2 sequence
Described as above. Summed up: as §1

The target of assay [8] is T4, human PlGF-1 fragment (comprising amino acids 17-131) produced in human embryonic kidney cells (human, UniProt P49763 35-221).
T4 sequence: T1 sequence
The description is as above. In short, it runs like this: as §1

The target of assay [9] is recombinant human PlGF-1 (comprising amino acids 1-131) expressed in E. coli (R&D Systems) (human) (UniProt P49763). Description: … sandwich, capture MAb255, detection MAb826; antigen 250 pg/mL.
The target is the same in assay [10]. Nature of the assay: … sandwich, capture MAb255, detection pAb264; antigen 250 pg/mL.
For assay [11], the target named is T2, human PlGF-1 comprising amino acids …. Nature of the assay: … sandwich, capture MAb255, detection MAb826; antigen 1500 pg/mL. In short, it runs like this: as §1
Assay [12] addresses T3, CHO human PlGF-1 comprising amino acids …. Described as above. Summed up: as §1
Assay [13] deals with T4, human PlGF-1 fragment (comprising amino …). Described as above. Summed up: as §1
Assay [14] has as its target recombinant human PlGF-1 (comprising amino acids 1-131) expressed in E. coli (R&D Systems) (human) (UniProt P49763). Nature of the assay: … sandwich, capture MAb255, detection MAb826; antigen 15 pg/mL.
The target of assay [15] is T1, CHO human PlGF-1 fragment (comprising …). Nature of the assay: … sandwich, capture MAb255, detection MAb826; antigen 750 pg/mL. In short, it runs like this: as §1
Assay [16] has as its target T2, human PlGF-1 comprising amino acids …. Described as above. In short, it runs like this:
as §1

Assay [17] concerns the target T3, CHO human PlGF-1 comprising amino acids …. The description is as above. Summed up:
as §1

For assay [18], the target named is T4, human PlGF-1 fragment (comprising amino …). The description is as above. In short, it runs like this:
as §1

2 molecules from patent US20100015637A1 (AbbVie / Abbott, published 2010) can be followed below.

As to “native sFlt-1, isolated from human placental tissue (from UniProt P17948 27-687) (receptor)”, the % Inhibition (as a rule, the relative decrease from the control value, in per cent) in assay [1] stood at 0%; in [2], 75.9%; in assay [3], 37.2%; in assay [4], 52.1%. Further, the PlGF-1 Measured turned out to be 865 pg/mL in [1], 209 pg/mL in assay [2], 494 pg/mL in assay [3] and 415 pg/mL in assay [4].

B1: monoclonal antibody 1-255-713 (produced by murine hybridoma cell line 1-255-713, ATCC PTA-8536) (antibody, mouse IgG2a, V domains shown)
VH: QVHLQQSGAELMKPGASVKISCKATGYTFSSYWIEWVKQRPGHGLEWIGEILPGSVSNNFNEKFKDKATLTADPSSNTAYIQVSSLTSEDSAVYYCARSTGFYYGGNYFDHWGQGTTLAVSS
VL: DVVMTQTPLSLPVSPGDQASISCRSSQSLVHSNGHTYLHWYLQKPGQSPKLLIYKVSNRFSGVPDRVSGSGSGTDFTLKISRVEAEDLGVYFCSQSTHVPPTFGGGTKLEIKR
notes: also called MAb255
With B1, the RLU in assay [5] amounted to 5940 RLU; in [6], 6110 RLU; in assay [7], 6270 RLU; in assay [8], 5760 RLU; in [9], 298000 RLU; in assay [10] it was 543000 RLU. The RLU was 1.52e+06 RLU in assay [11]; 734000 RLU in assay [12]; 1.04e+06 RLU in [13]; 22700 RLU in assay [14]; 395000 RLU in assay [15]; 890000 RLU in [16]. Besides, the figures for the RLU in [17] and in [18] were 400000 RLU and 576000 RLU, respectively.
